Key:
[1] = substrate: CP(=O)(O)CCC(=O)C(=O)O; assay: Kinetic parameters of purified mutant PPTGDH-G239K; format: biochemical, Pseudomonas moorei; details: other: PPO 2-10 mM, NADPH 1-5 mM, pH 7.4, 35° C., double-reciprocal plot
Protocol: (§1) 1. […] The mutant proteins were purified by Ni-NTA column(1.6×10 cm, Bio-Rad, the USA), and the specific operations were carried out as follows: (1)equilibrate a Ni-NTA column with 5 column volumes of a binding buffer(pH 8.0, 50 mM sodium phosphate buffer containing 0.3 M NaCl) until the baseline is steady; (2)load the sample with a flow rate of 1 mL/min with the amount of the loading sample of 25-40 mg/mL, thereby attaching the target protein to the Ni-NTA column; (3)wash the column with 6 column volumes of buffer A (pH 8.0, 50 mM sodium phosphate buffer containing 0.3 M NaCl and 30 mM imidazole) at a flow rate of 1 mL/min until the baseline is steady; (4)wash the column with buffer B (pH 8.0, 50 mM sodium phosphate buffer containing 0.3 M NaCl and 500 mM imidazole) at a flow rate of 1 mL/min, collect the target protein and dialyze overnight in a pH 7.5, 20 mM phosphate buffer, thereby obtaining the pure glufosinate-ammonium dehydrogenase; and (5)wash the Ni-NTA column with 5 column volumes of a binding buffer(pH 8.0, 50 mM sodium phosphate buffer containing 0.3 M NaCl) until the baseline is steady, and store the Ni-NTA column in 5 column volumes of ultrapure water containing 20% ethanol.
(§2) According to sequential mechanism in glufosinate-ammonium dehydrogenase's catalytic reaction, vmax, Km^A, Km^B can be calculated by a double-reciprocal plot, the results were shown in Table 4.

[2] = substrate: NC(=O)C1=CN([C@@H]2O[C@H](COP(=O)(O)OP(=O)(O)OC[C@H]3O[C@@H](n4cnc5c(N)ncnc54)[C@H](OP(=O)(O)O)[C@@H]3O)[C@@H](O)[C@H]2O)C=CC1; assay: Kinetic parameters of purified mutant PPTGDH-G239K; format: biochemical, Pseudomonas moorei; details: other: PPO 2-10 mM, NADPH 1-5 mM, pH 7.4, 35° C., double-reciprocal plot
Protocol: as §1, §2

B1: Pseudomonas moorei glufosinate-ammonium dehydrogenase E3 (SEQ ID NO: 6) variant PPTGDH-G239K (Pseudomonas moorei; G239K) (protein)
chain: MIESVESFLARLKKRDPDQPEFHQAVEEVLRSLWPFLEANPRYLTSGILERICEPERAIVFRVSWVDDQGKVQVNRGFRIQMNSAIGPYKGGLRFHPSVNLGVLKFLAFEQTFKNSLTSLPMGGGKGGSDFDPKGKSDAEVMRFCQAFMSELYRHIGADVDVPAGDIGVGAREIGFLFGQYKRLSNQFTSVLTGKGPSYGGSLIRPEATGFGCVYFAEEMLKRRGETVEGKRVAISGSKNVAQYAARKVMDLGGKVISLSDSEGTLYCESGLTEAQWQAVLELKNVQRGRISELAGRFGLEFLAGQRPWGLSCDIALPCATQNELDAEAARALLRNGCTCVAEGANMPTTLEAVDLFIEAGILFAPGKASNAGGVAVSGLEMSQNAMRLLWTGGEVDSKLHAIMQSIHHACVHYGEENGQVNYVKGANIAGFVKVADAMLAQGVV
- Km [1]: 2530 µM
- kcat [1]: 33.98 ± 1.55 s⁻¹
- kcat/Km [1]: 13430 M⁻¹ s⁻¹
- Km [2]: 68 µM
- kcat/Km [2]: 499700 M⁻¹ s⁻¹

— patent US12031160B2, “Method for the production of glufosinate-ammonium” (ZHEJIANG UNIVERSITY OF TECHNOLOGY, priority 2018, dated 2024)
